This is an account of results in patent US20230002480A1.

Test in all cases: cell-based or functional assay
The target in assay [1] is HIV-1 Env of pseudovirus CNE8 (clade CRF01_AE) (HIV-1).
Assay [2] deals with HIV-1 Env of pseudovirus MS208A1 (HIV-1).
In assay [3] the target is HIV-1 Env of pseudovirus CNE21 (clade BC) (HIV-1).
Assay [4] concerns the target HIV-1 Env of pseudovirus HIV-0013095-2.11 (clade C) (HIV-1).
In assay [5] the target is HIV-1 Env pseudovirus 3103.v3.c10 (HIV-1).
For assay [6], the target named is MuLV pseudovirus (Neg. Control) (MuLV).
The target in assay [7] is HIV-1 Env pseudovirus CNE5 (HIV-1).
Assay [8] concerns the target HIV-1 Env of pseudovirus 1394C9G1 (Rev-) (HIV-1).

Regarding 10-1074 (antibody), in assay [1], the IC50, titer in TZM.bl cells was greater than 50 µg/mL and the IC80, titer in TZM.bl cells is greater than 50 µg/mL.

For the substance N49P7 (antibody), in assay [2], the neutralization IC50 came out at 0.12 µg/mL, the neutralization IC80 was 0.479 µg/mL and the neutralization MPI turned out to be 100.

For the substance N49P7.1 (antibody), in assay [2], the neutralization IC50 worked out at 0.12 µg/mL, the neutralization IC80 came out at 0.431 µg/mL and the neutralization MPI stood at 100.

As usually defined, the IC50 is the midpoint of a concentration-inhibition curve. Lower therefore signals greater potency in that assay. For orientation: IC80 means the concentration at which the effect reaches the 80% level. Read a high IC80 as weaker potency. In assay [3], N49P7.2 (antibody) showed an IC50 of 48.3 µg/mL, an IC80 greater than 50 µg/mL and an MPI of 51. In assay [4], this substance displayed an IC50 of 0.183 µg/mL, an IC80 of 0.931 µg/mL and an MPI of 97.

In assay [5], N49P9 (antibody) had an IC50 of 17.6 µg/mL, an IC80 greater than 50 µg/mL and an MPI of 55. Moreover, in assay [6], the IC50 is greater than 50 µg/mL, the IC80 was greater than 50 µg/mL and the MPI was 13.

In assay [7], N49P9.1 (antibody) came in with an IC50 of 0.183 µg/mL, an IC80 of 0.641 µg/mL and an MPI of 100. In assay [5], this substance came in with an IC50 greater than 50 µg/mL, an IC80 greater than 50 µg/mL and an MPI of 45.

In assay [3], N49P11 (antibody) came in with an IC50 of 7.4 µg/mL, an IC80 of 21.9 µg/mL and an MPI of 100. In assay [4], this substance yielded an IC50 of 5.85 µg/mL, an IC80 of 17.8 µg/mL and an MPI of 100.

In assay [3], N49P18.1 (antibody) registered an IC50 of 7.93 µg/mL, an IC80 of 29.2 µg/mL and an MPI of 95. Moreover, in assay [4], the IC50 is greater than 50 µg/mL, the IC80 was greater than 50 µg/mL and the MPI is 48.

As for N49P19 (antibody), in assay [7], the IC50 amounted to 0.748 µg/mL, the IC80 worked out at 3.29 µg/mL and the MPI was 100. In assay [5], this substance displayed an IC50 greater than 50 µg/mL, an IC80 greater than 50 µg/mL and an MPI of 0. In assay [6], this substance registered an IC50 greater than 50 µg/mL, an IC80 greater than 50 µg/mL and an MPI of 0.

On to VRC01 (antibody), for which, in assay [8], the IC50, titer in TZM.bl cells came to 0.36 µg/mL and the IC80, titer in TZM.bl cells turned out to be 1.28 µg/mL.
